Literature values as cited in article PMC6143783.

Columns and labels:
[1] = target: GABAA receptor α3 TM3-TM4 loop (Homo sapiens) (UniProt P34903); assay: ITC
[2] = target: GABAA receptor α1 TM3-TM4 loop (Homo sapiens) (UniProt P14867); assay: ITC
GABAA receptor α1 TM3-TM4 loop (Homo sapiens), sequence (P14867 334-420): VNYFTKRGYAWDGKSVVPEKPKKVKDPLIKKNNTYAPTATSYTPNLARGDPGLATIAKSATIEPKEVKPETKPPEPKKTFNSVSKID

gephyrin, sequence (Q03555 whole entry): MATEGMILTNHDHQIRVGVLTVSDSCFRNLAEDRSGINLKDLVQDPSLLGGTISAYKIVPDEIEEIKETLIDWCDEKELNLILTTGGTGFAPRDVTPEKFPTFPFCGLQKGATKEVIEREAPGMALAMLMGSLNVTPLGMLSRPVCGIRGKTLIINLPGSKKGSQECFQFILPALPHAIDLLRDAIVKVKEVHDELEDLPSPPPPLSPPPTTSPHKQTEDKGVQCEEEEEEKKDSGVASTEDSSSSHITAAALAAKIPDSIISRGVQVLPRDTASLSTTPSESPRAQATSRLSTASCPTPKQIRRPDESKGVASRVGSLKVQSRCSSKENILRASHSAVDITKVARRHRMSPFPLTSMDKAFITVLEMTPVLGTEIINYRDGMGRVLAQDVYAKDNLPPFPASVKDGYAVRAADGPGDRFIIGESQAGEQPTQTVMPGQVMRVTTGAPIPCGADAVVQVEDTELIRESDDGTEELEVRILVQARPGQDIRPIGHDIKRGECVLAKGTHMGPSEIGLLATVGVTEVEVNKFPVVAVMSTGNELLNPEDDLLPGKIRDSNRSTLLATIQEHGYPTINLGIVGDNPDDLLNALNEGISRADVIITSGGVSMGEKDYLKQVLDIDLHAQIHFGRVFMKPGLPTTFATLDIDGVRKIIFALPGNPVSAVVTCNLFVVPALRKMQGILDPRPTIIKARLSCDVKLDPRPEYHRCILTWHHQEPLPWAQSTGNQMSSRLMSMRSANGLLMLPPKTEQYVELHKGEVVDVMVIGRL
GABAA receptor α3 TM3-TM4 loop (Homo sapiens), sequence (P34903 359-457): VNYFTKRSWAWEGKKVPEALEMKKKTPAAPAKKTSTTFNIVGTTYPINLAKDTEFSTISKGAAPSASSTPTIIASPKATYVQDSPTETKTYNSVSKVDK

Kd [1]: 5.3 µM
Kd [2]: 17 µM
Substance: gephyrin (from UniProt Q03555)
